From the supplement of paper PMC9170038

The sequences below were run on MS2 coat protein (assay: apparent KD of MS2 coat protein; higher = weaker reporter binding). Details: Eterna round: R107; input ligand: theophylline 2 mM.
In short: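 Normalised binding curves from single clusters were fitted, and the median fit for each design is given as apparent KD. The clusters held designed RNA switches transcribed on-chip from Illumina sequencing clusters. These were titrated with SNAP-549-labelled MS2 coat protein (twofold steps from 0.7 or 1.5 nM to 3 µM, 0.8–1.5 h to 10–20 min per step) in 100 mM Tris-HCl pH 7.5, 80 mM KCl, 4 mM MgCl2, without or with constant ligand.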
With “ACGUUUUAGUCGGCCGCCACUGUUUUCAUGUUCAACAUGAGGAUCACCCAUGUACCUUUUUUUAUCAGGACCGGGACGUAAUAGA [JR_SSTryptoB_Sub004]” the “apparent KD of MS2 coat protein” value was 77.3 nM.
For “UCGCCCAGAAAGGAUUCCUGGGAUAUGGAAGGAGCGCUGAUGCCAGCAGGUAGGUCGCCAACGGACAUGAGGAUCACCCAUGUAC [Same State - Arginine A (Freestyle 7)]”, the “apparent KD of MS2 coat protein” value was 21.7 nM.
For “AUGUAGAACCGAAGGAGCGCGAUAACAUGAGGAUCACCCAUGUAGUUUUGGUGGCUUCGAUCGCAGGUAGGUCGCGGAAGUAGUA [#03 Exclusion - Arginine B]”, the “apparent KD of MS2 coat protein” value was 77 nM.
For “ACAUUGCGCUCGGCCGCCACUGGCUUAUGAUUAUAAGCAUUAAUGAACAUGAGGAUCACCCAUGUCAGGACCGGGAGCGAACCAU [SSTryp B #7]”, the “apparent KD of MS2 coat protein” value was 14.9 nM.
With “AAUGCCGGAUCGGCCGCCACUGGUUGGCUCUGUGUACAUGAGGAUCACCCAUGUCCAUCCCAAACCAGGACCGGGAUCUUUGUGU [Veonmale]” the “apparent KD of MS2 coat protein” value was 13.5 nM.
“ACAUGAGGAUCACCCAUGUAAUCAUCAGAAGGAGCGUGGAAUAACACAGGUAGGUCGCUGAUGUUAUAUUAAUCUUAUUCGUAAA [JR_ExcArginiA_Sub003]” was tested, and the “apparent KD of MS2 coat protein” value was 13.2 nM.
“GAGUAGAGGACGGCCGCCACUGAACAUGAGGAUCACCCAUGUCGUGAUCCGUUACCUAAAGAAGAUAGGACCGGGUCAUGUACUC [Exclusion Tryptophan B GF 19]” was tested, and the “apparent KD of MS2 coat protein” value was 32.7 nM.
“GCUAGUGGCAGAAGGAGCGACAUUUAUAGUGGUCGAUACAUGAGGAUCACCCAUGUACUAUGUCAGGUAGGUCGCUGCCACUAGC [EAB NP+V+V2 #5]” was tested, and the “apparent KD of MS2 coat protein” value was 34 nM.
For “GGUACAUGAGGAUCACCCAUGUAUUAGUGCCGAGGACCGGUACGGCCGCCACUCGCUUCACAUGAGGAUCACCCAUGUGUCACAG [SSTA DOUBLE!!! :-D #13]”, the “apparent KD of MS2 coat protein” value was 39.7 nM.
In the case of “UCGCCCAGGAUGGAAUCCUGGGAUAUGGAAGGAGCGCUGAUGCCAGCAGGUAGGUCGCCAACGGACAUGAGGAUCACCCAUGUAC [Same State - Arginine A (Freestyle 9)]”, the “apparent KD of MS2 coat protein” value is reported as 21.2 nM.
With “UGUCGGCGAAAGUUGGCGUGUCUUGCUGGUCGAGGACCGGUACGGCCGCCACUCGAUCCUUCGCACAUGAGGAUCACCCAUGUUG [SS Tryp A #24]” the “apparent KD of MS2 coat protein” value was 34.8 nM.
In the case of “AAUAAACAUGAGGAUCACCCAUGUAGGGUGCGAGGACCGGUACGGCCGCCACUCGGGUGAAAACAUGAGGAUCACCCAUGUUAAA [Cloverleaf #DoubleMS2 #GUTurnoff]”, the “apparent KD of MS2 coat protein” value is reported as 229 nM.
In the case of “UAACAUGAGGAUCACCCAUGUAAACUAAGUCGAGGACCGGUACGGCCGCCACUCGAAAUUGAAGAAUUGGCGGAAAAUGUAUGUU [JR_ExcTryptoA_Sub018]”, the “apparent KD of MS2 coat protein” value is reported as 13.3 nM.

Same assay, conditions: Eterna round: R107; input ligand: tryptophan 2.4 mM
For “ACGAGACGUCUGGAUACCAGCCCAGCGAUAAACAUGAGGAUCACCCAUGUCAAACCACCCGGCCCUUGGCAGCCACGUACCUCAC [theeternabot_sameState_MS2_Theo_B_10]”, the “apparent KD of MS2 coat protein” value was 14.9 nM.
In the case of “ACCGGCACCUAGGAUACCAGAUCCACAACAAACAUGAGGAUCACCCAUGUAUAAAGUGGUAUCCCUUGGCAGCCUGUGACAAUCG [theeternabot_sameState_MS2_Theo_B_19]”, the “apparent KD of MS2 coat protein” value is reported as 15.8 nM.
In the case of “AAUGUAAUAGUCGUACUCUUACACUGAGAAGGAGCGCGAAAGUUCGCAGGUAGGUCGCUCAGUUAUACAUGAGGAUCACCCAUGU [Bebemaata]”, the “apparent KD of MS2 coat protein” value is reported as 24.1 nM.
“CGAUAGAUACGAAGGAGCGACAUGAGGAUCACCCAUGUCUACCACGUCGAAAGACGCUCAUGUCAGGUAGGUCGCGUAUUUAUCG [Astros-Eli-mod8]” was tested, and the “apparent KD of MS2 coat protein” value was 101 nM.
For “UGUAUGGACUGAAGGAGCGGGUUGAUAACCUGAGGAUCAUCCAGGUAAAAGGCGAAAGCCGCCCAGGUAGGUCGCAGUCCAUACU”, the “apparent KD of MS2 coat protein” value was 237 nM.
For “UUUUUUAUUGGGUAUAGAAUAUUAACUGAAGGAGCGUGGUAUUACACAGGUAGGUCGCAGUUUUUACAUGAGGAUCACCCAUGUU [JR_SSArginiA_Sub010]”, the “apparent KD of MS2 coat protein” value was 39 nM.
In the case of “GUUGAGACCUCGGCCGCCACUCGCCAUGAGGAUCUCCCAUGUAACAUGAGGAUCACCCAUGUACUGAGGACCGGGAGGUCCUAGU [Same State Tryptophan B GF 15]”, the “apparent KD of MS2 coat protein” value is reported as 65.6 nM.
“GGGAGGUAGGCGGCCGCCACUGAUUUUCAUAUAUAUAUAACAUGAGGAUCACCCAUGUAGAUAUACAGGACCGGGCCUAUUUUUU [aaaF]” was tested, and the “apparent KD of MS2 coat protein” value was 14.2 nM.
“AGCGCAGGUCCUGAUACCAGAGACAUGAGGAUCACCCAUGUCCGAUGGUCCUGCCUCAGGCUCCCUUGGCAGCAGGGCUUGUGCU [Exclusion Theophylline B GF10]” was tested, and the “apparent KD of MS2 coat protein” value was 10.1 nM.
In the case of “GUAUAAAGAAAACUUUAUACAGUGGGUGAACGAGGACCGGUACGGCCGCCACUCGGACAUGAGGAUCACCCAUGUCCAUGUGAAA [AstrosExyTryA#9]”, the “apparent KD of MS2 coat protein” value is reported as 37.2 nM.
“ACAUGAGGAUCACCCAUGUAACAAACAGAAGGAGCGUGAAAGAACACAGGUAGGUCGCUGAACUUAAUGAAUACUCAUUAGAUCC [JR_Nu_SSArginiA_Sub027]” was tested, and the “apparent KD of MS2 coat protein” value was 14.6 nM.
For “UCGCCCAGAAAGGAUUCCUGGGAUAUGGAAGGAGCGCUGAUGCCAGCAGGUAGGUCGCCAACGGACAUGAGGAUCACCCAUGUAC [Same State - Arginine A (Freestyle 7)]”, the “apparent KD of MS2 coat protein” value was 18 nM.
“GAGCUGAUGUAGAAAUUUUAUUUAUGAGAUACCAGUACAGAAAUGUACCCUUGGCAGCUCAUUUUUACAUGAGGAUCACCCAUGU [Ex Theophylline A 14]” was tested, and the “apparent KD of MS2 coat protein” value was 13.3 nM.
With “AUGUAGAACCGAAGGAGCGCGAUAACAUGAGGAUCACCCAUGUAGUUUUGGUGGCUUCGAUCGCAGGUAGGUCGCGGAAGUAGUA [#03 Exclusion - Arginine B]” the “apparent KD of MS2 coat protein” value was 55.4 nM.
“ACAUGAGGAUCACCCAUGUGGCGUCUUGAUACCAGACGAGAAGUAGUCCCUUGGCAGCAAAUACGUGAGGAUCACACAUGUGCGA [cccmullin3]” was tested, and the “apparent KD of MS2 coat protein” value was 29 nM.
In the case of “ACAUGAGGAUCACCCAUGUGCAGCACGGAUACCAGCGUCCUAGUGCGCCCUUGGCAGCCGGACAUGAGGAUCACCCAUGUGUGGG [Exclusion Theophylline A GF30]”, the “apparent KD of MS2 coat protein” value is reported as 95.7 nM.
For “UCUUGGUCCGCAAGGACCUUGAGUUGCGAUACCAGCACGGUAACGUGCCCUUGGCAGCGCACAUGAGGAUCACCCAUGUGGUGUU [#1 Exclusion - Theophylline A Attempt #16 (HarryS)]”, the “apparent KD of MS2 coat protein” value was 170 nM.
In the case of “ACAUGAGGAUCACCCAUGUAAUCAUCAGAAGGAGCGUGGAAUAACACAGGUAGGUCGCUGAUGUUAUAUUAAUCUUAUUCGUAAA [JR_ExcArginiA_Sub003]”, the “apparent KD of MS2 coat protein” value is reported as 14.2 nM.
With “GCUAGUGGCAGAAGGAGCGACAUUUAUAGUGGUCGAUACAUGAGGAUCACCCAUGUACUAUGUCAGGUAGGUCGCUGCCACUAGC [EAB NP+V+V2 #5]” the “apparent KD of MS2 coat protein” value was 32.5 nM.
For “AGCGACAUGCGUGAUACCAGCUACAUGAGGAUCACCCAUGUACGUCAGUAAUGACUGUGUAGCCCUUGGCAGCAUAAUGCAUGUC [Exclusion - Theophylline B (Freestyle 18)]”, the “apparent KD of MS2 coat protein” value was 33.3 nM.
With “UCGCCCAGGAUGGAAUCCUGGGAUAUGGAAGGAGCGCUGAUGCCAGCAGGUAGGUCGCCAACGGACAUGAGGAUCACCCAUGUAC [Same State - Arginine A (Freestyle 9)]” the “apparent KD of MS2 coat protein” value was 18.6 nM.
With “ACAUGAGGAUCACCCAUGUAGUGGCACGAUACCAGCUGAUCCCGUGGCCCUUGGCAGCGUCCGGUGUGGUGCGCCGGGUUGGAGC [BBBMULLIN]” the “apparent KD of MS2 coat protein” value was 48.9 nM.
